From US20240026407A1, “MODIFICATION OF SAPONINS” (GLAXOSMITHKLINE BIOLOGICALS SA, priority 2020, published 2024)

B1: 370 (protein, listed as Rhizoctonia solani)
chain: MAPRPFKPLDVEDVISKLSLNEKTRLLAGIDNWHTYPVPRLGVPSLRFTDGPNGARGTKFFEGVPAACFPAATGLGSSWDPEFIQKVGQAIGRDCKDKGCHVLLGPTINIQRSPLGGRGFESYSEDPLLSGTLARAFIKGVQSEGVSATIKHYVTNDSEFERMSMSSELSTRALREIYLRPFELACRDPETAPWAVMTAYNRVNGLHASENKYLLDSVLRKQWGWEGMIMSDWYGTYSADASIKAGLDLEMPGPPTWRADALQRCVVAQKIRVPEIDARVREVLKLINRVAVSGIPENADETGEPKPETIDLLRQAAAHANVLLKNSESLLPISAKDVASIAVIGPNADSPVFSGGGSANLRPYKHTTALEGIAAALQDAGNKVEVQHTIGAHAHKEAPLLGVKHLKTKAGEPGYDIEWFNEDPVQNPDAKRVHYTHGTTSFAFFNDNLPGDDVLHQECWATMTAIFTPEVTGKYEFGAAATGLVDVYVDGKKIIDNSSNPVPGHVFFMTGTVEVLNTVELTAGKPAEIKLQFASPVAARTKGFTQIGAGSLSLEGRGGCRWGGGRTFEDDQGIKEAVDLAKKVDKVVLVVGLNNDWESEGYDRDNMELPRATNRLVSAVLEVNKNTAVVIISGTPVAMPWAESASTIVQSFYSGGEAGNGLADVLFGKVNPSSRLPLTFPVRDEDTPSHLNFPGQNGKVLYAEGVFVGYRHYLTYKKKVLFPFGYGLSYTQFEHSDLKLSGEIGKDSTVKVSVTVKNTGKVAGRDVVQIYVRDLVSRLDRPVKELKGFAKSSLLEPGKSETVTITLDKYAFGYFDDWAGEGRDGEGLWVAEAGDFEIVAASTSEDVGISAGISLKQSFEWL
B2: 84 (protein, listed as Tenericutes bacterium)
chain: MVNEELKTLLHTLSLTTKLKLLTGANFWESEKVLGTDLPIIVMNDGPFGVRKPTVNVDSGMLMEVIPATAFPTTSALASSFDPELLEKMGKTLATECIDQGVDLLLGPGINIKRSPLCGRNFEYFSEDPYLTSEMASGLVRGLQSKGVGATLKHYAVNNQEKERYTTNAIVDKRALNEIYLRPFHNVIKNTEPFSVMCSYNQINGRHASRHYKLLTEKLRNEANFKGLVVSDWGAVVDHVDSINAGLNLEMPGGYQNTAELEKAVKDGEIKLETIDEMITPLLKFMMYKRDNPKPKVKCDYKKNLEVAQEIAEKSAVLLRNEDNLLPINKTAKVGLIGNFAIKPRYQGSGSSQINPHTLVSVHDAFIQNDVNFVYADGYAEHEVKPNKKKIAEAVKVAKNSDVVVLCVGLPESYEVEGYDRKTLDMPPSHNELIKEVAKVNENIVIVLSTGSPVTMPWINDVKSILLTHLAGSMTGPATYNLLFGVTNPSGKLSETYPLSLDKGLPGGEFLTSDQNVLYRESLYVGYRYYDTFREQVLFPFGHGLSYTQFNTSHHEIEEVKDGYNITMEVTNIGHIRGAEVIGIYTGKSRSLLYGPRKELRAFKKVYLDPGEKQKINIFLPTESLKAYCPVKQEWVLENVNYNVYVGINVQTTDEIFQILVDDANDLSYLKNYQKENEMYYRRADFNPSIKDFTTLFGGESLPLFFANRKRPFTLANNISDTTDYWWGRTIYKIMAKTSRKLAGDDVVLQEMAVETIKELPFRSLSALSSGEVSTNQRDAILLLVNGKPIRGIFKFLRKKK
B3: 152 (protein, listed as Kocuria rosea)
chain: MSDLWHGEEHAPGESDTAMTDATRTSGRAARLTELVDRLSLAEKVHLLTGETAFTLPGNERIGLAALAFSDGPTGVRGLTFVGGDAVALFPSATLIAGAFDDGIAEEVGRMLAEEAQRQHIHVVLGPTINLHRTPLGGRLFEAYSEDPYLTGRTAAAYVRGMQERGTAACLKHLVANESETLRNFMDSRVPETALRELYLLPFEMAVQDAGAWSMMAAYNDVNGVAATEHDHVQNGIVKGEWAWDGLIMSDWFATKRTAASASGGLDLVMPGPGGPWGERLVTAVRAGEVAEETIDDHVLRLLHLAERVGGLTPPGRQSRPWAQDLPAVDSPQRKEQLRRIAVRGMTVVANDGVLPLAVEGDAGQDVALIGRHAIDTVDMGGGSAVVNPPYLSTIAEGLAALLGDRVRVADGPAVRTRPVPADPAFLTDPATGTPGMQVVLLGADGTELTRYHSDSPAISLDGHDDLGEVPATAVLTTILANDAGPVRLGAVGAGRWDLVAEGQELSAELRLEGQDPGEAMLRPPAFAETVELPAAATLTATVAPAPVDWREVLLGDPGLGLAEESHLLQMTTAGKTALVAAPAPRPDDDLLAAAEAAAVAAGTAVVVVGLTEEQETEAADKTTLVLPGRQDELVRRVATAAERTVVVVNAATPVLMPWLDQVDAVLVAGLPGQEGGHAVAAALTGALEPTGRLVTSWPAADGAAPAWDVVPDGDRALSYDDGTFIGHRGYHAGHAPAPLFWFGHGLGYGTWEYGTVRARAGEGGPVVDVELTNTSSRASRETVQVYLDPAEDDQPIRLIGYQGVDVPSGATAAVRVRCDDRLLRRWDDAAGTWAPLAGGGELVLARGLGDVRARVPLA
B4: 274 (protein, listed as Modestobacter marinus)
chain: MAGDTTAPAELDRPWTNTSLSPQERARELVAAMTLEQKIAQLHGAMDTIDIYSMKADTAEGMEQLAAQIRVERHVAAIEELGIPRFRITNGPVGVGMGDGTPSPPATALPMTIGLAAGFDPALAREYGTVIGSETATLGQHVLEGPGVCLHRTPISGRNFEYFSEDPYLSGVMGVEVARAIQEHGVIAMAKHYVCNDQEYERFRADVEVDERTLRELYLLPFEMLVKDADLAAIMSAYNRVRGTYATEHRYLLHTVLREEWGWQGYVQSDFWSCRSAAPAVNAGLDHEMPDAKWLNEDNVKAALADTSLEIETVDRALVRRYTQMFRFGQFDRPYDPGEIDAEGHGAISRRIGEQIAVLLKNDGAVLPLEPGVQSVVVIGQATYVDEACLGGGGSSKVDPLYTVRPMDGLRDVLQTLGSSADLREVTVADDLSNLAEAQAAAATADVVVIMAGLVATEGADQPDAHMLNDQDRMIAEVGQVNVRTVVVLKDGNPVLMPWIDAVPAVLEAWNQGAEDGHVVADLLFGVVNPAGKLPTTYPRSWADTPFAGHPERYPGTDEGAGYPVLRYSEGRQMGYRWYQAQGITPLFPFGHGLSYTTFELSDLAVSPERTDGAAPLTVQLTVANTGDVAGAEVAQVYLELPEAAQQPPKRLVGFCKIWLEPGAAERISVTIDPAATNHPLSVWDDGAHDFVVLPGEYTVFVGSSSEDTPLSATVTID
B5: 102 (protein, listed as Bacteroides fragilis)
chain: MKATTSLATSCRRLLLWGVLTLQCLFSTAQKRFTADVEQQAEKILSQMTLDEKLSYIGGINWMYTRPLERFGIPRLKMSDGPQGLGTHGPSTAYPCALMLAATWNEQLATEYGSALGKDCRARGVHVLLGPAVNIYRAPMCGRNFEYMGEDPYLTSRMATGYIKGVQGQGVMATIKHFIANNSDYDRDHISSDIDERTLNEIYFPSFRAAVQEAEVGAVMSSYNLLNGIYTTEHPWLLKDVLRQQWGFKGILMSDWGSTHHCIPAVKGGLDLEMPAGSKMQPEELKYYLRTGDITIETIDEKVRHILQTLLAFGFRETQQPDTHIPLKNPQCAQTALNVASEGLVLLKNTNQILPIRSGKVKTIAVVGKNAQGYVCGGGSGEVHPFQYVSVLDGIRKEAAERDIRVEYLDVYDYLPTIIFTDTERKQKGFRAQYFDNMNLEGTPKVEQTETKINYSWSGGTGLKEMPKEQFSVRWNGTICPQETDEYLFTLGGDDGYRLYIDGKLIADEWHEGAFRNSTYRCMLEAGKKYDLKIEYFQKGGGAAVNFIWKQKNASNNLFVEALNRNDLVVACIGFNSDTEGEGRDRTFELPEDEAQLLQNTLQSKRPVVGIVNAGGNVEMQSWEPSLKGLLWAWYGGQEAGTAIARTLFGELNPSGKLPITFEKRWEDNPTFHSYYDPDGDKHVEYAEGIFVGYRGYDKLKREVQYPFGYGLSYTRFKLSAPTVGTPKTDGSVTVTCKLTNTGRTAGAEVVQLYVSNKDTTVEHPEKELKGFRKVYLEPGETKSIEITVPAEAFSHYDTGSRRFVIDRGSHDILLGFSSRDIKAKMSVGISR

experiment: Experiment 4-1: screening of glucosidases for deglycosylation with purified QS-18 (0.04 mg/ml) at pH 7.5 and room temperature; assay type: biochemical, Quillaja saponaria; conditions: pH 7.5, room temperature, 20 h, clarified E. coli lysate, QS-18 2150 to QS-21 1988 by LCMS/MS
Procedure: Nucleotide sequences were sub-cloned into pET24b+ for expression. 10 uL of E. coli cells (One Shot® BL21(DE3) chemically competent E. coli) were transferred to each well of a 96 well PCR plate (prechilled on ice). 10 uL autoclaved water was added to the DNA, resuspended by pipetting, and 1 uL of plasmid DNA (15-30 ng) was transferred to the competent cells. Immediately after addition, the resulting mixture was mixed by pipetting. Cells were heat shocked by placing the plate in a thermal cycler at 42° C. for 30 seconds then transferred directly to an ice bath for 2 min. 100 uL sterile Lysogeny Broth (LB) medium was added to each well containing transformed cells. The content of each plate was transferred into a 96-deep well plate pre-aliquoted with 400 uL LB and the plate was incubated at 37° C. with shaking and 85% humidity for 1 hour. After outgrowth, 500 uL of sterile LB containing 100 ug/mL kanamycin was added to the plates containing cells and plates incubated at 37° C. with shaking overnight (18 hours) with humidity control (85%).
1000 mLs of Overnight Express Media was supplemented with 1 mL kanamycin 50 mg/mL and 20 mL of 50% v/v glycerol added (50 ug/mL kanamycin final and 1% glycerol). 96-Well Assay Block 2 mL plates were aliquoted with 380 uL of media per well. Pre-inoculum (20 uL) from transformation plates was added. The plates were sealed appropriately and incubated at 37° C. at 300 with shaking for 2 h. After 2 h the temperature was lowered to 20° C. and incubation continued for 20 h.
The liquid cultures were centrifuged for 10 minutes at 4° C. The supernatant was discarded, plates blotted on an absorbent material to remove residue and the plates frozen at −80° C.
Lysis buffer was prepared according to the following protocol: • 1. Polymyxin B sulphate (0.5 mg/mL) was suspended in 100 mM potassium phosphate pH 7.5 • 2. The mixture was sonicated until polymyxin B sulphate had dissolved • 3. Lysozyme (1 mg/mL) and benzonase (0.1 uL/mL lysis buffer) were added
2 copies of each cell pellet plate were removed from −80 degC freezer and allowed to thaw. 200 uL of lysis buffer was added to each well of one copy of the cell pellet plates. Plates were shaken at room temperature for 10 mins. 190 uL of cell pellet/lysis buffer was transferred to a corresponding fresh cell pellet plate. These plates were incubated at room temperature with shaking for 2 hours. Lysate was clarified by centrifugation (10 min, 4 degC).
QS-18 was obtained by analogous methods to Example 3, collecting a QS-18 containing phenyl fraction following phenyl treatment (presence of m/z corresponding to key components was confirmed by MS and the phenyl fraction then used without further treatment). QS-18 solution was prepared by diluting aqueous QS-18 (ca 1 mg/mL) with 100 mM potassium phosphate pH 7.5 to 0.2 mg/ml. 40 uL clarified lysate was transferred into fresh 96 well PCR plates. 10 uL QS-18 solution added to each well of lysate to a final concentration of 0.04 mg/ml. Incubated at room temperature with shaking for 20 h. Quenched with 50 uL MeCN and shaken at room temperature for 10 mins. Samples were analysed by LC-MS/MS using a Waters Acquity H class coupled to a Waters Xevo Tandem Quadrupole (TQD) Mass Spectrometer.
Enzyme activity was calculated as: […]
Candidate enzymes with % conversion >0.72%, i.e. >3 S.D. above negative control, were considered to be positive hits and are listed below in Table 7. Sample results are shown in FIG. 10 for a QS-21 standard, FIG. 11 for negative control and FIG. 12 for treatment with the glucosidase of SEQ ID No. 262.

In order of falling “Expt 4-1 % conv” value:
1. B1  1.1%
2. B3  1.1%
3. B4  0.9%
4. B2  0.8%
5. B5  0.7%

experiment: Experiment 4-2: screening of glucosidases for deglycosylation with purified QS-18 (1 mg/ml) at pH 6 and 30 deg C; assay type: biochemical, Quillaja saponaria; conditions: pH 6, 30 degC, 18 hrs, clarified lysate, LCMS/MS
Procedure: Lysates were prepared in an identical manner to Experiment 4-1 above, except the lysis buffer was prepared in 100 mM potassium phosphate buffer pH 6. QS-18 solution was prepared by dissolving QS-18 in 100 mM potassium phosphate buffer pH 6 (2 mg/mL).
12 uL clarified lysate was transferred into fresh 96 well PCR plates. 12 uL QS-18 solution was added (1 mg/ml final concentration), plates sealed and incubated overnight (30° C.) for 18 hrs. After quenching with 25 uL MeCN and shaking for 10 mins (RT), samples were analysed using the LC-MS/MS protocol described in Experiment 4-1 and enzyme activity determined in an analogous manner.

In order of rising “Expt 4-2 % conv” value:
1. B4  0.3%
2. B2  0.4%
3. B5  0.4%
4. B1  0.5%
5. B3  0.5%
